B1: Protrudin (Homo sapiens), Q5T4F4 (parent)
chain: MQTSEREGSGPELSPSVMPEAPLESPPFPTKSPAFDLFNLVLSYKRLEIYLEPLKDAGDGVRYLLRWQMPLCSLLTCLGLNVLFLTLNEGAWYSVGALMISVPALLGYLQEVCRARLPDSELMRRKYHSVRQEDLQRGRLSRPEAVAEVKSFLIQLEAFLSRLCCTCEAAYRVLHWENPVVSSQFYGALLGTVCMLYLLPLCWVLTLLNSTLFLGNVEFFRVVSEYRASLQQRMNPKQEEHAFESPPPPDVGGKDGLMDSTPALTPTEDLTPGSVEEAEEAEPDEEFKDAIEETHLVVLEDDEGAPCPAEDELALQDNGFLSKNEVLRSKVSRLTERLRKRYPTNNFGNCTGCSATFSVLKKRRSCSNCGNSFCSRCCSFKVPKSSMGATAPEAQRETVFVCASCNQTLSK
partner: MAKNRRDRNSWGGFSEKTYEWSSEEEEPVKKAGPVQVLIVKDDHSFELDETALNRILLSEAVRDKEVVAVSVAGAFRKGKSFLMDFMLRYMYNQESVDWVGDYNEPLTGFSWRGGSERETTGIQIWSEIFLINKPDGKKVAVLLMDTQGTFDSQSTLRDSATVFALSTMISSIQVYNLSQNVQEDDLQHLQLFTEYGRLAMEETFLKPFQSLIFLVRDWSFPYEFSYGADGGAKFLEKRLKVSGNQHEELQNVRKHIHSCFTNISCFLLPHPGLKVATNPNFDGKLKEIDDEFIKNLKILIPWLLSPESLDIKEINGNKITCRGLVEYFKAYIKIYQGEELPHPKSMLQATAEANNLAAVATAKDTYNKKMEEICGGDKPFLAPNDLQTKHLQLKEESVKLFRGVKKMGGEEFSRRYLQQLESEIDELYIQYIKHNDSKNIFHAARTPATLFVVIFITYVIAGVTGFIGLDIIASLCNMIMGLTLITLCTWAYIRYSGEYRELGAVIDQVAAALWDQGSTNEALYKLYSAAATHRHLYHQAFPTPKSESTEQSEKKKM
B2: Protrudin (Homo sapiens), Q5T4F4 (parent)
chain: B1 chain
B3: Atlastin-1 (Homo sapiens), Q8WXF7 (parent)
chain: B1 partner
partner: B1 chain

Variants of B1 are the subject of one assay. Particulars: with atla1_human ATL1, Q8WXF7.
With MQTSEREGSGPELSPSVMPEAPLESPPFPTKSPAFDLFNLVLSYKRLEIYLEPLKDAGDGVRYLLRWQMPLCSLLTCLGLNVLFLTLNEGAWYSVGALMISVPALLGYLQEVCRARLPDSELMRRKYHSVRQEDLQRGRLSRPEAVAEVKSFLIQLEAFLSRLCCTCEAAYRVLHWENPVVSSQFYGALLVTVCMLYLLPLCWVLTLLNSTLFLGNVEFFRVVSEYRASLQQRMNPKQEEHAFESPPPPDVGGKDGLMDSTPALTPTEDLTPGSVEEAEEAEPDEEFKDAIEETHLVVLEDDEGAPCPAEDELALQDNGFLSKNEVLRSKVSRLTERLRKRYPTNNFGNCTGCSATFSVLKKRRSCSNCGNSFCSRCCSFKVPKSSMGATAPEAQRETVFVCASCNQTLSK [G191V], the “effect of a mutation on the interaction” value was “with no effect”.

Variants of B2 are the subject of a further assay. The settings on record: with reep5_human REEP5, Q00765.
Chain of reep5_human REEP5, Q00765 (Q00765 whole entry): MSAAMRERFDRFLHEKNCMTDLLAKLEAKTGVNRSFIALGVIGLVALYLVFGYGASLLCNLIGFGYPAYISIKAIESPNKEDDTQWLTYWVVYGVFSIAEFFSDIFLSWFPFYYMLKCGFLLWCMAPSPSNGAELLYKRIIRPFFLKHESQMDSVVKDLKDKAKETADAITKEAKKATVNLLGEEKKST
With MQTSEREGSGPELSPSVMPEAPLESPPFPTKSPAFDLFNLVLSYKRLEIYLEPLKDAGDGVRYLLRWQMPLCSLLTCLGLNVLFLTLNEGAWYSVGALMISVPALLGYLQEVCRARLPDSELMRRKYHSVRQEDLQRGRLSRPEAVAEVKSFLIQLEAFLSRLCCTCEAAYRVLHWENPVVSSQFYGALLVTVCMLYLLPLCWVLTLLNSTLFLGNVEFFRVVSEYRASLQQRMNPKQEEHAFESPPPPDVGGKDGLMDSTPALTPTEDLTPGSVEEAEEAEPDEEFKDAIEETHLVVLEDDEGAPCPAEDELALQDNGFLSKNEVLRSKVSRLTERLRKRYPTNNFGNCTGCSATFSVLKKRRSCSNCGNSFCSRCCSFKVPKSSMGATAPEAQRETVFVCASCNQTLSK [G191V], the “effect of a mutation on the interaction” value is on record as “with no effect”.
Same read-out and setting: for MQTSEREGSGPELSPSVMPEAPLESPPFPTKSPAFDLFNLVLSYKRLEIYLEPLKDAGDGVRYLLRWQMPLCSLLTCLGLNVLFLTLNEGAWYSVGALMISVPALLGYLQEVCRARLPDSELMRRKYHSVRQEDLQRGRLSRPEAVAEVKSFLIQLEAFLSRLCCTCEAAYRVLHWENPVVSSQFYGALLGTVCMLYLLALCWVLTLLNSTLFLGNVEFFRVVSEYRASLQQRMNPKQEEHAFESPPPPDVGGKDGLMDSTPALTPTEDLTPGSVEEAEEAEPDEEFKDAIEETHLVVLEDDEGAPCPAEDELALQDNGFLSKNEVLRSKVSRLTERLRKRYPTNNFGNCTGCSATFSVLKKRRSCSNCGNSFCSRCCSFKVPKSSMGATAPEAQRETVFVCASCNQTLSK [P200A] the value was “decreasing interaction strength”.

In the next assay the parent is B3. Particulars: with zfy27_human ZFYVE27, Q5T4F4.
In the case of MAKNRRDRNSWGGFSEKTYEWSSEEEEPVKKAGPVQVLIVKDDHSFELDETALNRILLSEAVRDKEVVAVSVAGAFRKGKSFLMDFMLRYMYNQESVDWVGDYNEPLTGFSWRGGSERETTGIQIWSEIFLINKPDGKKVAVLLMDTQGTFDSQSTLRDSATVFALSTMISSIQVYNLSQNVQEDDLQHLQLFTEYGRLAMEETFLKPFQSLIFLVRDWSFPYEFSYGADGGAKFLEKRLKVSGNQHEELQNVRKHIHSCFTNISCFLLPHPGLKVATNPNFDGKLKEIDDEFIKNLKILIPWLLSPESLDIKEINGNKITCRGLVEYFKAYIKIYQGEELPHPKSMLQATAEANNLAAVATAKDTYNKKMEEICGGDKPFLAPNDLQTKHLQLKEESVKLFRGVKKMGGEEFSRRYLQQLESEIDELYIQYIKHNDSKNIFHAARTPATLFVVIFITYVIAGVTGFIGLDIIASLCNMIMGLTLITLCTWAYIRYSGEYRELGAVIDQVAAALWDQGATNEALYKLYSAAATHRHLYHQAFPTPKSESTEQSEKKKM [S519A], the “effect of a mutation on the interaction” value is listed as “with no effect”.
For MAKNRRDRNSWGGFSEKTYEWSSEEEEPVKKAGPVQVLIVKDDHSFELDETALNRILLSEAVRDKEVVAVSVAGAFRKGASFLMDFMLRYMYNQESVDWVGDYNEPLTGFSWRGGSERETTGIQIWSEIFLINKPDGKKVAVLLMDTQGTFDSQSTLRDSATVFALSTMISSIQVYNLSQNVQEDDLQHLQLFTEYGRLAMEETFLKPFQSLIFLVRDWSFPYEFSYGADGGAKFLEKRLKVSGNQHEELQNVRKHIHSCFTNISCFLLPHPGLKVATNPNFDGKLKEIDDEFIKNLKILIPWLLSPESLDIKEINGNKITCRGLVEYFKAYIKIYQGEELPHPKSMLQATAEANNLAAVATAKDTYNKKMEEICGGDKPFLAPNDLQTKHLQLKEESVKLFRGVKKMGGEEFSRRYLQQLESEIDELYIQYIKHNDSKNIFHAARTPATLFVVIFITYVIAGVTGFIGLDIIASLCNMIMGLTLITLCTWAYIRYSGEYRELGAVIDQVAAALWDQGSTNEALYKLYSAAATHRHLYHQAFPTPKSESTEQSEKKKM [K80A], the “effect of a mutation on the interaction” value is “with no effect”.
Same read-out and setting: the result for MAKNRRDRNSWGGFSEKTYEWSSEEEEPVKKAGPVQVLIVKDDHSFELDETALNRILLSEAVRDKEVVAVSVAGAFRKGKSFLMDFMLRYMYNQESVDWVGDYNEPLTGFSWRGGSERETTGIQIWSEIFLINKPDGKKVAVLLMDTQGTFDSQSTLRDSATVFALSTMISSIQVYNLSQNVQEDDLQHLQLFTEYGRLAMEETFLKPFQSLIFLVRDWSFPYEFSYGADGGAKFLEKRLKVSGNQHEELQNVRKHIHSCFTNISCFLLPHPGLKVATNPNFDGKLKEIDDEFIKNLKILIPWLLSPESLDIKEINGNKITCRGLVEYFKAYIKIYQGEELPHPKSMLQATAEANNLAAVATAKDTYNKKMEEICGGDKPFLAPNDLQTKHLQLKEESVKLFRGVKKMGGEEFSRRYLQQLESEIDELYIQYIKHNDSKNIFHAARTPATLFVVIFITYVIAGVTGFIGLDIIASLCNMIMGLTLITLCTWAYIWYSGEYRELGAVIDQVAAALWDQGSTNEALYKLYSAAATHRHLYHQAFPTPKSESTEQSEKKKM [R495W] reads “with no effect”.
The same measure, in the same setting: for MAKNRRDRNSWGGFSEKTYEWSSEEEEPVKKAGPVQVLIVKDDHSFELDETALNRILLSEAVRDKEVVAVSVAGAFRKGKSFLMDFMLRYMYNQESVDWVGDYNEPLTGFSWRGGSERETTGIQIWSEIFLINKPDGKKVAVLLMDTQGTFDSQSTLRDSATVFALSTMISSIQVYNLSQNVQEDDLQHLQLFTEYGRLAMEETFLKPFQSLIFLVRDWSFPYEFSYGADGGAKFLEKRLKVSGNQHEELQNVRKHIHSCFTNISCFLLPHPGLKVATNPNFDGKLKEIDDEFIKNLKILIPWLLSPESLDIKEINGNKITCRGLVEYFKAYIKIYQGEELPHPKSMLQATAEANNLAAVATAKDTYNKKMEEICGGDKPFLAPNDLQTKHLQLKEESVKLFRGVKKMGGEEFSRRYLQQLESEIDELYIQYIKHNDSKNIFHAARTPATLFVVIFITYVIAGVTGFIALDIIASLCNMIMGLTLITLCTWAYIRYSGEYRELGAVIDQVAAALWDQGSTNEALYKLYSAAATHRHLYHQAFPTPKSESTEQSEKKKM [G469A] the value was “with no effect”.

(Values after IntAct's records for PubMed 23969831.)
